B1: 13G51/1-127 (VHH)
VHH: EVQLVESGGGLVQAGGSLSLSCAASGGTFNGRAVGWFRQAPGEEREFVTGISWSGGSTDYADSVKGRFTISRDNSKNTVSLQMNSLKPEDTAVYYCAASRRFYSGLVYYSVDAYENWGQGTQVTVSS
notes: C-term myc-His6 tag
B2: 13G121/1-127 (VHH)
VHH: EVQLVESGGGLVRAGTSLRLSCADSARTFSSAAMGWFRQAPGKEREFVSAISPIGSSKYYADSVKGRFTISRDNAKNTVYLQMDSLKPEDTAVYYCAASSYGSTYYSQGRAYYYDYWGQGTQVTVSS
notes: C-term myc-His6 tag
B3: 12D61/1-116 (VHH)
VHH: EVQLVESGGGLVQPGGSLRLSCAASRSIFSPNVVGWYRQAPGKQRELVAAVTSGGITNYADSVKGRFTISRDNAKNTLYLQMNSLKAEDTAVYYCNARERGIYDSWGQGTQVTVSS
notes: C-term myc-His6 tag
B4: 11B91/1-125 (VHH)
VHH: EVQLVESGGALVQPGGSLRLSCAASGSIRSINTMGWYRQAPGNQREFVAAVTEGGTTSYAASVKGRFTISRDKAKNTVLLQMDSLKPEDTAVYYCNADRFLYYSAGRYDTGSDIWGQGTQVTVSS
notes: C-term myc-His6 tag
B5: 11A31/1-120 (VHH)
VHH: EVQLVESGGGLVQAGGSLRLSCAASGGTFSSGVMAWFRQSPGEEREFLALITRNGETKKTADSVKGRFTISRDNAKNGVSLQMDSLKAEDTAVYYCASDPTYGSGRWTYWGQGTQVTVSS
notes: C-term myc-His6 tag
B6: 13G61/1-118 (VHH)
VHH: EVQLVESGGGVVQAGGSLRLSCAPSGRTFSSYVMGWVRQAPGKAREFVAGITRNSGRTRYADSVKGRFTISRDNADNTVTLQMNSLKPEDTAVYYCAGGIDLYTFHYFGQGTQVTVSS
notes: C-term myc-His6 tag
B7: 14H41/1-118 (VHH)
VHH: B6 VHH with V11L, G56I, H106D
notes: C-term myc-His6 tag
B8: 12D71/1-125 (VHH)
VHH: EVQLVESGGGLVQAGGSLGLSCAASGRTVSTMGWFRQAPGKEREFVTAITWSGDSTNFADSVKGRFTISRDSAKDTVYLQMNNLKPEDTAVYYCAATTYYSGSYISTLSTSYNYWGQGTQVTVSS
notes: C-term myc-His6 tag
B9: 11B51/1-127 (VHH)
VHH: EVQLVESGGGLVQAGGSLRLSCAASGGTFSGRGMGWFRQAPGKEREFVAAVSWSGGNTYYADSVKGRFTISRDNAKSTVYLQMDSLKPEDTAVYYCAASRRFYSGLYYYTDDAYEYWGQGTQVTVSS
notes: C-term myc-His6 tag
B10: 11A81/1-125 (VHH)
VHH: EVQLVESGGALVQPGGSLRLSCAASDSIRSINIMGWYRQAPGKQREFVAAVTEDGSINYAESVKGRFTISRDKAKNALYLQMNSLKPEDMAVYYCNADRVLYYSDSRYYTGSNYWGQGTQVTVSS
notes: C-term myc-His6 tag
B11: 11A71/1-125 (VHH)
VHH: EVQLVESGGGLVQPGGSLRLSCAASRSIRSVSVMGWYRLAPGNQRELVATITADGITNYADSVKGRFTVSRDNGRNTVYLQMNSLKPEDTAVYYCNVDRLLYYSSGYYQTSVDVWGQGTQVTVSS
notes: C-term myc-His6 tag
B12: 13E51/1-128 (VHH)
VHH: EVQLVESGGGLVQAGGSLRLSCAASRHTFSGYAMGWFRQAPGKEREFVAAIRWSGGITYYADSVKGRFTISSDNAKNTVYLQMNSLKPEDTALYYCARSVTYYSGSHAYTQEGGYARWGQGTQVTVSS
notes: C-term myc-His6 tag
B13: 12D31/1-115 (VHH)
VHH: EVQLVESGGGLVQPGGSLRLSCAASRNIFDFNDMGWYRQGPGKEREFVALINVGGVAKYEDSVKGRFTISRDNAENTVYLQMNNLKPEDMAVYYCNARILSRNYWGQGNQVTVSS
notes: C-term myc-His6 tag
B14: 14H21/1-125 (VHH)
VHH: EVQLVESGGGLVQAGGSLRLSCVRSGGYFGSYHIGWFRQAPGNEREFVAAITWNGASTSYADSVKGRFTISRSIAENTVYLQMNKVKPEDTAVYYCAARMYGSDWLPRPEDFDSWGQGTQVTVSS
notes: C-term myc-His6 tag
B15: 22B41/1-124 (VHH)
VHH: EVQLVESGGGLVQPGGSLRLSCTVFGRTFSGDVIGWFRQAPGKEREFVAAISTSGGGTDSADSVKGRFTISKENAKNTVYLQMTILKPEDTAVYYCASSPYGPLYRSTHYYDYWGQGTQVTVSS
notes: C-term myc-His6 tag
B16: 13F41/1-111 (VHH)
VHH: EVQLVESGGGLVQAGGSLRLSCVASGRTLSTTGVGWFRQAPGKERESVATIFVGGTTYYSDSVKGRFTISRDNAKNAVNLQMSNLKPEDTALYYCTIGSYRGQGTQVTVSS
notes: C-term myc-His6 tag
B17: 13F42/1-111 (VHH)
VHH: B16 VHH with E44G, Y93H
notes: C-term myc-His6 tag
B18: 12C101/1-111 (VHH)
VHH: B16 VHH with K75R, L80P, S83N, L92V
notes: C-term myc-His6 tag
B19: 11B121/1-127 (VHH)
VHH: EVQLVESGGGLVQPGGSLRLSCAASGSSASINTMGWYRQAPGEQRELVAEITEGGIINYTDSVKGRFTISRDNAKNTVYLEMNNLKPEDTAVYYCNADRALYRNYSDGRYYTGYDYWGQGTQVTVSS
notes: C-term myc-His6 tag
B20: 22B610/1-120 (VHH)
VHH: EVQLVESGGGLVQPGGSLRLSCAASGSIFSINAMGWYRPAPGKQRELVARITSTGSTNYADSVKGRFTISRDNAKNTVYLQMNSLKPEDTAVYYCNADVSPSYGSRWYGWGQGTQVTVSS
notes: C-term myc-His6 tag
B21: 12C32/1-127 (VHH)
VHH: EMQLVESGGGLVQAGGSLRLSCATSERTFSTYTMAWFRQAPGKEREFVVAIKSSDNSTSYRDSVKGRFTISRDNAKSTMYLQMNSLKPEDTAVYYCAARREYSTIYTARYPGEYVYWGQGTQVTVSS
notes: C-term myc-His6 tag
B22: 21A21/1-124 (VHH)
VHH: EVQLVESGGGLVQAGGSLRLSCAASGGTFGVYHMGWFRQAPGTEREFVAVIRSGGTTLYEDSVKGRFTISRDNAKNTVYLRMNSLKPEDTAVYYCAAQIYYRTNYSSQSNYDYWGQGTQVTVSS
notes: C-term myc-His6 tag
B23: 21A53/1-124 (VHH)
VHH: B22 VHH with R19E, T28A, T43K, V50A, F67V, N73D, S106Y, S109N, N110V
notes: C-term myc-His6 tag
B24: 12D121/1-126 (VHH)
VHH: EVQLVESGGGLVQTGGSLRLSCAASGRAFSTYGMGWFRQAPGKAREFVAAISRSGTGTYYAGSMKGRFTISRDDAKNTVYLQMNSLKPEDTAVYYCAARQPYASGSHYSSTQYTYWGQGTQVTVSS
notes: C-term myc-His6 tag
B25: 22B1212/1-122 (VHH)
VHH: EVQLVESGGGLVQPGGSLRLSCAASGFTFSSYAMSWVRQAPGKGLEWVSAINSGGGSTSYADSVKGRFTISRDNAKNTLYLQMNSLKPEDTAVYYCAKYLSFYSDYEVYDYWGQGTQVTVSS
notes: C-term myc-His6 tag
B26: 14H91/1-127 (VHH)
VHH: EVQLVESGGGLVQAGGSLRLSCAASGRTFSRDVMGWFRQAPGKEREFVAAKTWSGASTYYADSVRGRFTISRDNAKNAVYLQMNSLKPEDTAVYYCAARDSSTLDSTYYVGGSYNYWGRGTQVTVSS
notes: C-term myc-His6 tag
B27: 11B12/1-118 (VHH)
VHH: EVQLVESGGGLVQAGGSLRLSCAASGRALINYAMGWFRQAPGKEREFVSAINWSGSHTDYGDSVKGRFAISRDNAKNTVYLQMHSLKPEDTAVYHCATGYSLPAFDSWGPGTQVTVSS
notes: C-term myc-His6 tag
B28: 13E101/1-128 (VHH)
VHH: EVQLVESGGGLVQAGGSLRLSCAVSGRTFNNDHMGWFRQAPGTERELVAATGRRGGPTYYADSVKGRFTISRDNAESTVYLQMNSLKAEDTAVYYCAANRYYCSTYGCLSTPRQYDYWGQGTQVTVSS
notes: C-term myc-His6 tag
B29: 13F121/1-119 (VHH)
VHH: EVQLVESGGGLVQAGGSLRLSCAASGRSFNDYTMGWFRQTPGKEREFVARVWWNGGSAYYADSVKGRFTISIDNAKNTVYLQMNNLTPEDTAVYYCAALYRGRSVYDDWGQGTQVTVSS
notes: C-term myc-His6 tag
B30: 13G31/1-125 (VHH)
VHH: EVQLVESGGGLVQAGGSLRLSCAASGGTFSRYKMGWFRQAPGKEREFVAASRWSGGIKYHADSVKGRFTISRDDAKNSIYLQMNTLKPEDTAVYYCAADDYLGGDNWYLGPYDSWGQGTQVTVSS
notes: C-term myc-His6 tag
B31: 22C65/1-124 (VHH)
VHH: EVQLVESGGGLVQAGGSLRLSCAVSGFLFDSYAMGWFRQAPGKEREFVAAIRWSGSATDYSDSVKGRFTISRDNAKNTVYLQMNSLIPEDTAVYYCAARKTYRSLTYYGEYDSWGQGTQVTVSS
notes: C-term myc-His6 tag
B32: 22B85/1-120 (VHH)
VHH: EVQLVESGGGLVRPGGSLRLSCATSGSDIGINAMGWYRQAPGNQRELVATITGSTGTTYADSVKGRFAISRDGAKNTVYLQMDSLKPEDTAVYYCNLRVYTGTYGGRNYWGQGTQVTVSS
notes: C-term myc-His6 tag
B33: 21A111/1-124 (VHH)
VHH: EVQLVESGGGLVQAGGSLKLSCAVSGRTIVPYTMAWFRQAPGKEREFVAVTRSGGTTFYADSAKGRFTIARDDAKNTVYLQMNSLKPEDTAVYYCALATAYRTNYSSRDKYDYWGQGTQVTVSS
notes: C-term myc-His6 tag

Where a chain is given by its changes, count along the chain named.

The target in the test is T1, recombinant human ErbB2/Fc chimera (human, UniProt P04626 23-652).
T1 construct: bought from R&D Systems; also called rhErbB2-Fc; rhErb2-Fc; Fc part of the bought chimera not given; not described
Description: ELISA, coated ErbB2/Fc. (ELISA stands for enzyme-linked immunosorbent assay.)
On to B1, for which the binding result is listed as “binds”.
Take B2: the binding result was “binds”.
In the case of B3 it was “binds”; in that of B4, “binds”; in that of B5, “binds”.
With B6 the entry was “binds”; with B7, “binds”.
On to B8, for which the binding result is on record as “binds”.
With B9, the binding result was “binds”.
In the case of B10 it was “binds”.
In the case of B11, the binding result is recorded as “binds”.
For the molecule B12, the binding result is “binds”.
With B13 the entry was “binds”; with B14, “binds”.
For B15, the binding result was “binds”.
As to B16, the binding result is “binds”.
Take B17: the binding result is “binds”.
With B18 the entry was “binds”; with B19, “binds”.
In the case of B20 it was “binds”; in that of B21, “binds”.
With B22 the entry was “binds”; with B23, “binds”; with B24, “binds”.
In the case of B25, the binding result is “binds”.
With B26 the entry was “binds”.
Turning to B27, the binding result is listed as “binds”.
As to B28, the binding result is recorded as “binds”.
In the case of B29, the binding result is reported as “binds”.
For the molecule B30, the binding result is reported as “binds”.
With B31, the binding result was “binds”.
With B32 the entry was “binds”; with B33, “binds”.

For the origin of these results see patent US20150232562A1 (Ablynx, published 2015).
